Results: US20240287172A1 (SCIRHOM, published 2024)

T1: dog iRhom2 full length wild type, T7-tagged (dog, UniProt Q00M95 1-827)
T1 construct: whole, on cells; on MEF-DKO cells; also called Dog-iR2-FL-WT-T7
T1 sequence: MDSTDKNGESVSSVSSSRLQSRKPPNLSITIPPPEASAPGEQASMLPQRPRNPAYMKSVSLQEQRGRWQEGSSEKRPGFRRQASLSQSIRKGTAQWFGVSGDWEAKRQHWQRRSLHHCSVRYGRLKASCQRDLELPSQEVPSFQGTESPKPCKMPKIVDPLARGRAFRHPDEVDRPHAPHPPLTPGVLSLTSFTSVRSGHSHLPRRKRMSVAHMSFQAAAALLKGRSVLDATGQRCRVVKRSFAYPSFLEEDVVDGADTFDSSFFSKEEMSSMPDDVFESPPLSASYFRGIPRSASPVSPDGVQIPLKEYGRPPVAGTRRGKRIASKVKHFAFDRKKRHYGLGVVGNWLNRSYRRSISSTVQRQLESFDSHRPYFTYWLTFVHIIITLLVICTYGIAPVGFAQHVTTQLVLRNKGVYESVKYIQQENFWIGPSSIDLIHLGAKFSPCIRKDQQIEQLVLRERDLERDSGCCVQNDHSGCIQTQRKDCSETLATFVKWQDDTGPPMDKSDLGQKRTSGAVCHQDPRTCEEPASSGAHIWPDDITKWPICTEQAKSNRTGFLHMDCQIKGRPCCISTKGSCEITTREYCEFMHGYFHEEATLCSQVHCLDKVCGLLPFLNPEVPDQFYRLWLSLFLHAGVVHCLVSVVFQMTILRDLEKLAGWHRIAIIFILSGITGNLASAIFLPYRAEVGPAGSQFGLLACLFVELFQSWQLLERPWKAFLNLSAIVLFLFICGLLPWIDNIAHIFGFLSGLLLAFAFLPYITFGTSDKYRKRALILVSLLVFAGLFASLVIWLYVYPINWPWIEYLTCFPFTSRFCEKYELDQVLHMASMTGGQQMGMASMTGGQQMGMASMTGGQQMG

T2: miR2-FL-WT-FLAG (mouse, UniProt Q80WQ6 1-827)
T2 construct: on MEF-DKO cells
T2 sequence: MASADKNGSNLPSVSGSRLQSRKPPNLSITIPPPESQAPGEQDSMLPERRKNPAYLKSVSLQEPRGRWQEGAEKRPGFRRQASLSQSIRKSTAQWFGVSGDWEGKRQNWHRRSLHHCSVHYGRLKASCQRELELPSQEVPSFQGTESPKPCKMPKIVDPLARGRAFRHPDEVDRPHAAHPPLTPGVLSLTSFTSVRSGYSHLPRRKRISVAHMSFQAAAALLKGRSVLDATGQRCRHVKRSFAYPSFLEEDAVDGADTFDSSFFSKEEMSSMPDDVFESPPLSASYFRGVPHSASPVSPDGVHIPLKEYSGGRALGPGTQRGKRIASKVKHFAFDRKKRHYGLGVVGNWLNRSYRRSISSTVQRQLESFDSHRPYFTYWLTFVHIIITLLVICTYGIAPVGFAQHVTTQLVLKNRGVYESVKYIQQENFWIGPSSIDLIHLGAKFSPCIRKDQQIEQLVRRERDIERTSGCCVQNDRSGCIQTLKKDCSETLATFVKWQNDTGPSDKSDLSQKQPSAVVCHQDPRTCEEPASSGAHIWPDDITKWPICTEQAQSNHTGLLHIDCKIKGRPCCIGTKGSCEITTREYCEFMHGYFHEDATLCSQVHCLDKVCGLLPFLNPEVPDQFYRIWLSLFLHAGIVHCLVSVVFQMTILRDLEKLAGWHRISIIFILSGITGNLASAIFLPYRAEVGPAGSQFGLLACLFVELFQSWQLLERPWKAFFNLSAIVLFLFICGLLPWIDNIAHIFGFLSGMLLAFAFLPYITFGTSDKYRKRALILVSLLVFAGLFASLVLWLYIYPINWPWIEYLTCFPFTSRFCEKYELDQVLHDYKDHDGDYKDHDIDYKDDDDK

B1: antibody 16 (antibody, V domains shown)
VH: QVTLKESGPGILQPSQTLSLTCSFSGFSLSTFALGVGWIRQPSGRGLEWLAHIWWDDDKYYNPALKSRLTISKDTSKNHVFLKIANVDTADTATYYCARITTYYYGMDYWGQGTSVTVSS
VL: DIVLSQSPATLSVTPGDSVSLFCRASQSIGNHLHWYQQESHASPRLLIKYASQSISGIPSRFSGSGSGTDFTLSINSVETEDFGMYFCQQSYNWPLTFGAGTKLELK
notes: mouse IgG, kappa light chain; also called clone #16; purified antibody 16
B2: antibody 3 (antibody, V domains shown)
VH: QVTLKESGPGILQPSQTLSLTCSFSGFSLTTFAMGIGWVRQPSGKGLEWLAHIWWDGEKYNNPVLKSRLTISKDTSKNQVFLRIANVDTPDTATYYCARISSIYYIIDNWGQGTSVTVSS
VL: DIVLTQSPATLSVTPGHSVSLSCRASQSISNNLHWYQKKSHESPRLLIKYVSQSISGIPSRFSGSGSGTDFTLSINSVETEDFGMYFCQQSYNWPLTFGAGTKLELK
notes: mouse IgG, kappa light chain; also called clone #3; purified antibody 3

Assays:
[1] = target: T1, dog iRhom2 full length wild type, …; assay: FACS on MEF-DKO-iR2 Dog cells, 3 µg/ml
Description: In brief, immortalized MEF-DKO-EV control cells, MEF-DKO-rhesus-iR2-FL-WT-T7 cells, MEF-DKO-cyno-iR2-FL-WT-T7 cells, MEF-DKO-dog-iR2-FL-WT-T7 cells and MEF-DKO-rabbit-iR2-FL-WT-T7 cells, as well as their respective iRhom1 counterparts, were harvested with 10 mM EDTA in PBS, washed and resuspended in FACS buffer (PBS, 3% FBS, 0.05% sodium azide), and seeded in Nunc U-bottom 96-well plates (Thermo Fisher Scientific, USA) at approximately 3×10⁵ cells per well. To pellet cells and remove supernatants, the plates were centrifuged at 1,500 rpm and 4° C. for 3 minutes. For primary staining, cells were resuspended in 100 μl per well of either FACS buffer alone (controls), mouse monoclonal anti-T7 IgG (Merck Millipore, USA) at 3 μg/ml FACS buffer or the antibodies of the invention also at 3 μg/ml FACS buffer and incubated on ice for 1 hour.
Afterwards, plates were centrifuged at 1,500 rpm and 4° C. for 3 minutes and washed twice with 200 μl per well of FACS buffer. For secondary staining, cells were spun down and resuspended in 100 μl per well of PE-conjugated goat anti-mouse IgG F(ab′)2 detection fragment (Dianova, Germany) diluted 1:100 in FACS buffer. Protected from light, the cell suspensions were incubated on ice for 1 hour. […] Finally, cells were resuspended in 150 μl per well of FACS buffer and analyzed using a BD Accuri™ C6 Plus flow cytometer (Becton Dickinson, Germany).

miR2-FL-WT-FLAG = target: T2, miR2-FL-WT-FLAG; assay: FACS on MEF-DKO-miR2-FL-WT-FLAG cells

Row | Binder | binding result [1] | binding result (miR2-FL-WT-FLAG)
1 | B1 | binds | 
2 | B2 |  | no binding (tested: 3 µg/ml)
